Values quoted from earlier work, collected in PMC7545370.

Columns and labels:
[1] = molecular target: KAP1 RBCC (Homo sapiens) (UniProt Q13263)
[2] = molecular target: Ubiquitin (Homo sapiens) (UniProt P0CG48)

SMARCAD1 CUE1, sequence (Q9H4L7 154-202): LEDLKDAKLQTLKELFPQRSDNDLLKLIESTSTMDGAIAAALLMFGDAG
KAP1 RBCC (Homo sapiens), sequence (Q13263 62-379): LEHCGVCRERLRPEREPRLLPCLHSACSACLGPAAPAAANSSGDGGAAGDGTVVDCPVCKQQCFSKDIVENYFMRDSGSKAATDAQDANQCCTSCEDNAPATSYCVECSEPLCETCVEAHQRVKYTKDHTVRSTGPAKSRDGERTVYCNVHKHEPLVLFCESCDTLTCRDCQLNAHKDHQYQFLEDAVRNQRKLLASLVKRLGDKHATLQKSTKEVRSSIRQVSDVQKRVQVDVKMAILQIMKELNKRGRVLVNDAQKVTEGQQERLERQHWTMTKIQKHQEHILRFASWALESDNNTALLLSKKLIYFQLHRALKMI

Kd [1]: 0.158 µM | Kd [2]: 952 µM
Substance: SMARCAD1 CUE1 (from UniProt Q9H4L7)
